Assay results: patent publication US20110217291A1 (ZymoGenetics, published 2011)

B1: FcγRIIA/RIA-CH6 (soluble hybrid receptor: first Ig domain of FcγRIIA followed by second and third Ig domains of FcγRIA, C-terminal six His tag) (receptor)
chain: AAPPKAVLKLEPPWINVLQEDSVTLTCQGARSPESDSIQWFHNGNLIPTHTQPSYRFKANNNDSGEYTCQTGQTSLSDPVHLTVLSEWLLLQVSSRVFTEGEPLALRCHAWKDKLVYNVLYYRNGKAFKFFHWNSNLTILKTNISHNGTYHCSGMGKHRYTSAGISVTVKELFPAPVLNASVTSPLLEGNLVTLSCETKLLLQRPGLQLYFSFYMGSKTLRGRNTSSEYQILTARREDSGLYWCEAATEDGNVLKRSPELELQVLGGSGGHHHHHH
B2: untagged recombinant soluble human FcγRIA (receptor)
chain: QVDTTKAVITLQPPWVSVFQEETVTLHCEVLHLPGSSSTQWFLNGTATQTSTPSYRITSASVNDSGEYRCQRGLSGRSDPIQLEIHRGWLLLQVSSRVFTEGEPLALRCHAWKDKLVYNVLYYRNGKAFKFFHWNSNLTILKTNISHNGTYHCSGMGKHRYTSAGISVTVKELFPAPVLNASVTSPLLEGNLVTLSCETKLLLQRPGLQLYFSFYMGSKTLRGRNTSSEYQILTARREDSGLYWCEAATEDGNVLKRSPELELQVLG
modifications: N-terminal pyro-glutamic acid, converted from the glutamine at position 16
B3: FcγRIIIA/RIA-CH6 (soluble hybrid receptor: first Ig domain of FcγRIIIA followed by second and third Ig domains of FcγRIA, C-terminal six His tag) (receptor)
chain: EDLPKAVVFLEPQWYRVLEKDSVTLKCQGAYSPEDNSTQWFHNESLISSQASSYFIDAATVDDSGEYRCQTNLSTLSDPVQLEVHIGWLLLQVSSRVFTEGEPLALRCHAWKDKLVYNVLYYRNGKAFKFFHWNSNLTILKTNISHNGTYHCSGMGKHRYTSAGISVTVKELFPAPVLNASVTSPLLEGNLVTLSCETKLLLQRPGLQLYFSFYMGSKTLRGRNTSSEYQILTARREDSGLYWCEAATEDGNVLKRSPELELQVLGGSGGHHHHHH

target: rabbit polyclonal anti-OVA antibodies; assay: cell-based or functional assay

| IC50 (read off the curve); IL-6 secretion by MC/9 mast cells stimulated with anti-OVA/OVA immune complexes [pmol] | Binder |
| --- | --- |
| ~2 | B1 |
| ~1 | B2 |
| ~2 | B3 |

target: rabbit polyclonal anti-OVA antibodies; assay: cell-based or functional assay; remark: another data set of the same source

| IC50 (read off the curve); MCP-1 secretion by MC/9 mast cells stimulated with anti-OVA/OVA immune complexes [pmol] | Binder |
| --- | --- |
| ~2 | B1 |
| ~2 | B2 |
| ~2 | B3 |

target: rabbit polyclonal anti-OVA antibodies; assay: cell-based or functional assay; remark: another data set of the same source

| IC50 (read off the curve); TNF-α secretion by MC/9 mast cells stimulated with anti-OVA/OVA immune complexes [pmol] | Binder |
| --- | --- |
| ~2 | B1 |
| ~1 | B2 |
| ~1 | B3 |

target: rabbit polyclonal anti-OVA antibodies; assay: cell-based or functional assay; remark: another data set of the same source

| IC50 (read off the curve); IL-13 secretion by MC/9 mast cells stimulated with anti-OVA/OVA immune complexes [pmol] | Binder |
| --- | --- |
| ~2 | B1 |
| ~1 | B2 |
| ~1 | B3 |
